Assay results from US20020128189A1 (Harvard, published 2002).
Ends that are not written are not given here.

T1: LexA-E12477-654 (amino acids 477 to 654 of human E12 fused to LexA) (human, UniProt P15923 477-654)
T1 construct: not shown: LexA encoded by the LexA gene of pEG202, N-terminal fusion partner
T1 sequence (looked up): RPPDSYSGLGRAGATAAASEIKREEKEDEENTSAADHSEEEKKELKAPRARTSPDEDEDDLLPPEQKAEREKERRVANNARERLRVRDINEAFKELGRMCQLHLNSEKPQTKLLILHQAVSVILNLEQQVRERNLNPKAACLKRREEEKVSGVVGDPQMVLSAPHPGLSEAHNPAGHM

B1: Full-length human UBCH5 (interactant in the yeast two-hybrid interaction trap) (enzyme, not shown: large carriers)
chain: not shown

Legend:
[1] = biological target: T2, AD-UBCE2A (full-length UBCE2A fused to the B42 transcription activation domain) (rat, UniProt P63279 1-158 (human entry)); test: yeast two-hybrid interaction trap
T2 construct: also called AD-UBCE2A library isolate; UBPCE2A

[2] = biological target: T2, AD-UBCE2A (full-length UBCE2A fused to …); test: yeast two-hybrid interaction trap, beta-galactosidase
Excerpt: In order to assess the specificity of interaction and to map the interaction domains, cells of the yeast strain EGY48/pSH18-34 were transformed with the indicated bait constructs and library/interactant plasmids, and plated on Ura⁻ His⁻ Trp⁻ glucose plates. The bait constructs used in the specificity test were: LexA-Id3, which contains all of the Id3 coding sequence; LexA-c-Myc, which contains the C-terminal 137 amino acids of mouse c-Myc; LexA-Max, which contains all of the rat Max coding sequences; and LexA-Oct1, which includes amino acids 294-429 of human Oct 1 (containing the POU domain). Eight to twelve colonies from each bait/interactant combination were picked and plated in duplicate on Ura⁻ His⁻ Trp⁻ X-gal plates containing either 2% glucose or 2% galactose, 1% raffinose, and the color was assessed after 48 hours.
The specificity of the interaction partners was further examined by transforming yeast harboring expression plasmids encoding LexA fusions with various known HLH proteins. No interaction was detected with the HLH protein, Id3 (Christy et al., 1991, Proc. Natl. Acad. Sci. USA 88:1815-1819), the bHLH-leucine zipper protein, max (Blackwood et al., 1991, Science 251:1211-1217), or the homeodomain protein, Oct 1 (Sturm et al., 1988, Genes & Dev. 2:1582-1599); only weak promoter activity was discerned following introduction of LexA-myc. […]

[3] = biological target: T1, LexA-E12477-654 (amino acids 477 to 654 …); test: yeast two-hybrid interaction trap
[4] = biological target: B1; test: yeast two-hybrid interaction trap

T2 sequence (P63279 whole entry, the tested form may be a part): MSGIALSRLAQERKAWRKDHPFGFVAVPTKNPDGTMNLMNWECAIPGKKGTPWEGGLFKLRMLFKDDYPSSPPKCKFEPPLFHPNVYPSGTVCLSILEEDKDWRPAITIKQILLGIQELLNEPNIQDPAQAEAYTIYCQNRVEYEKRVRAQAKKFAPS

binding result [1]	binding result [2]	Binder	also measured
no binding		LexA-E12539-654 (other, human, UniProt P15923 539-654, looked up, also called LexA-E12 lacking this region; not shown: LexA encoded by the LexA gene of pEG202, N-terminal fusion partner) PPEQKAEREKERRVANNARERLRVRDINEAFKELGRMCQLHLNSEKPQTKLLILHQAVSVILNLEQQVRERNLNPKAACLKRREEEKVSGVVGDPQMVLSAPHPGLSEAHNPAGHM	
	no binding	LexA-Id3 (all of the Id3 coding sequence) (other, rat, UniProt P41138 1-119, looked up, Bait for the specificity test; not shown: LexA encoded by the LexA gene of pEG202, N-terminal fusion partner) MKALSPVRGCYEAVCCLSERSLAIARGRGKSPSAEEPLSLLDDMNHCYSRLRELVPGVPRGTQLSQVEILQRVIDYILDLQVVLAEPAPGPPDGPHLPIQTAELTPELVISKDKRSFCH	
		B1	binding result [3]: no binding
	no binding	LexA-Oct1 (amino acids 294-429 of human Oct 1, containing the POU domain) (other, UniProt P14859 294-429, looked up, range 294-429; Bait for the specificity test; not shown: LexA encoded by the LexA gene of pEG202, N-terminal fusion partner) TFKQRRIKLGFTQGDVGLAMGKLYGNDFSQTTISRFEALNLSFKNMCKLKPLLEKWLNDAENLSSDSSLSSPSALNSPGIEGLSRRRKKRTSIETNIRVALEKSFLENQKPTSEEITMIADQLNMEKEVIRVWFCN	
binds		LexA-E12477-530 (other, human, UniProt P15923 477-530, looked up, not shown: LexA encoded by the LexA gene of pEG202, N-terminal fusion partner) LexA-RPPDSYSGLGRAGATAAASEIKREEKEDEENTSAADHSEEEKKELKAPRARTSP	binding result [4]: no binding
